This data set relates to O=C(CNC(=O)OCc1ccccc1)Oc1ccc([N+](=O)[O-])cc1. In words: purified protein. The following applies: 20 mM Tris-HCl pH 8.0, 37 °C (methods; results pH 5.0), GST fusion.

What is called Km is the concentration of substrate that gives half-maximal velocity. Usually Vmax stands for the top rate of the reaction or transport when substrate is in excess. For orientation: kcat means the number of substrate molecules converted per active site and unit of time at saturation. By kcat/Km is commonly meant the second-order rate constant that governs catalysis at low substrate concentration.

For “MD2-SBro (small-sized bromelain from MD2 pineapple) (Ananas comosus)”, the Km is given as 42.1 ± 3.81 µM, the maximum rate (Vmax) came to 0.432 µM/min, the kcat turned out to be 0.2 ± 0.008 s⁻¹ and the kcat/Km turned out to be 4750 ± 230 M⁻¹ s⁻¹.

For the origin of these results see publication PMC9502857, “Heterologous Expression and Catalytic Properties of Codon-Optimized Small-Sized Bromelain from MD2 Pineapple” (Molecules, 2022).
